Common to all, as to conditions: 20 nM; 72 h
Data set [1] relates to MCF10A. As to the kind of experiment: 5+ nucleoli phenotype percent effect (relative to siNT 0% and siKIF11 100%); higher = more cells with five or more nucleoli. The method, then:
(§1)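 After 72 h, cells were fixed and stained with Hoechst and anti-fibrillarin, and nucleoli per nucleus were counted with CellProfiler. Values are plate-adjusted percent effect for the one-nucleolus and 5+ nucleoli phenotypes, normalised to siNT (0%) and to the positive controls siNOL11 or siKIF11 (100%), as the mean of biological triplicates. Percent viability is the nuclei count relative to siNT.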

In data set [2] the test system is MCF10A. Put plainly: one-nucleolus phenotype percent effect (relative to siNT 0% and siNOL11 100%); higher = more cells with one nucleolus (ribosome biogenesis inhibition). The method, then:
as §1

The test system of data set [3] is MCF10A. As to the kind of experiment: percent viability (nuclei count relative to siNT); higher = more viable cells. As for the experimental part:
as §1

The results in this text go back to the supplement of paper PMC10899765.

As to UAUAUGGACUUUUCUGAUACAAUG [hsa-miR-8076], the “5+ nucleoli phenotype percent effect” value in the data set on MCF10A [1] stood at 44.8%. Besides, the “one-nucleolus phenotype percent effect” value in the data set with MCF10A [2] is -22.4%. Also, the percent viability in the data set with MCF10A [3] was 49.4%.
On the same counts, the results for “GCCCAGGACUUUGUGCGGGGUG [hsa-miR-6840-3p]” are 16.2%, -16.9% and 117%.
In the same order, the values of GCCCAAAGGUGAAUUUUUUGGG [hsa-miR-186-3p] are 26.4%, -20.2% and 176%.
In the same order, the values of AUGGUCUCCUGUUCUCUGCAG [hsa-miR-6843-3p] are 7.69%, 10.8% and 31.7%.
In the case of ACAGCAGGCACAGACAGGCAGU [hsa-miR-214-3p], in the data set on MCF10A [1], the “5+ nucleoli phenotype percent effect” value was -1.88%. The “one-nucleolus phenotype percent effect” value in the data set with MCF10A [2] was 13.3%. The percent viability in the data set on MCF10A [3] came out at 19.3%.
AAAGGUAAUUGCAGUUUUUCCC [hsa-miR-548ai]: the “5+ nucleoli phenotype percent effect” value in the data set on MCF10A [1] worked out at 16.1%. The “one-nucleolus phenotype percent effect” value in the data set with MCF10A [2] is -23.8%. Further, the percent viability in the data set on MCF10A [3] worked out at 155%.
On the same counts, the results for “UUGUGGGGUUGGAGAGCUGGCUG [hsa-miR-6796-5p]” are -31.5%, 45.3% and 17.2%.
On the same counts, the results for “CAGGGCUCAGGGAUUGGAUGGAGG [hsa-miR-5088-5p]” are 15.2%, -17.9% and 86.9%.
In the same order, the values of GGCUGAGUGGGGUUCUGACUCC [hsa-miR-8077] are -6.36%, -3.93% and 31.9%.
Regarding UGCCCUGAGACUUUUGCUC [hsa-miR-7976], in the data set on MCF10A [1], the “5+ nucleoli phenotype percent effect” value is -8.65%. In addition, the “one-nucleolus phenotype percent effect” value in the data set with MCF10A [2] came out at 17.4%. Besides, in the data set with MCF10A [3], the percent viability stood at 40.8%.
On the same counts, the results for UCCCACUACUUCACUUGUGA [hsa-miR-4301] are 60.9%, -19.4% and 45.1%.
In the same order, the values of “UCCCUGAGACCCUAACUUGUGA [hsa-miR-125b-5p]” are 17.3%, -11.8% and 93.8%.
On the same counts, the results for AGAGAUGCCGCCUUGCUCCUU [hsa-miR-4708-5p] are -25.3%, 21% and 45.7%.
Turning to CUCUAGAGGGAAGCGCUUUCUG [hsa-miR-522-5p], the “5+ nucleoli phenotype percent effect” value in the data set on MCF10A [1] is 0.209%. Moreover, in the data set with MCF10A [2], the “one-nucleolus phenotype percent effect” value is -5.68%. Moreover, in the data set with MCF10A [3], the percent viability was found to be 40.6%.
On the same counts, the results for AUGGUCACCUCCGGGACU [hsa-miR-5587-5p] are 41.6%, -15.8% and 60.6%.
On the same counts, the results for “UCUGGCCUUGACUUGACUCUUU [hsa-miR-3922-3p]” are 6.7%, -2.7% and 35.7%.
In the same order, the values of AUGUGAUUGACGGCUGACUCCA [hsa-miR-8070] are -27.8%, 26.5% and 23%.
Consider AGCAGGGCUGGGGAUUGCA [hsa-miR-6132], for which the “5+ nucleoli phenotype percent effect” value with MCF10A [1] is -31%. The “one-nucleolus phenotype percent effect” value with MCF10A [2] was found to be 57.1%. In addition, in the data set with MCF10A [3], the percent viability worked out at 20.5%.
On the same counts, the results for AAGGAACCAGAAAAUGAGAAGU [hsa-miR-3914] are 57.2%, -40.6% and 111%.
On the same counts, the results for UACUAACUGCAGAUUCAAGUGA [hsa-miR-4637] are 24.1%, -24.1% and 140%.
Take UGCUUCCUUUCUCAGCUG [hsa-miR-7162-5p]: the “5+ nucleoli phenotype percent effect” value in the data set on MCF10A [1] is -13.8%. Moreover, the “one-nucleolus phenotype percent effect” value in the data set on MCF10A [2] was found to be 0.399%. Further, the percent viability with MCF10A [3] is 64.9%.
On the same counts, the results for “UAGGGAUGGGAGGCCAGGAUGA [hsa-miR-6757-5p]” are 2.44%, 3.26% and 41.1%.
For the sequence CUCAUUUAAGUAGUCUGAUGCC [hsa-miR-5696], the “5+ nucleoli phenotype percent effect” value with MCF10A [1] was -2.38%. Moreover, the “one-nucleolus phenotype percent effect” value with MCF10A [2] is -11.5%. In the data set with MCF10A [3], the percent viability is 125%.
In the same order, the values of CAGGAAGGAUUUAGGGACAGGC [hsa-miR-4476] are -8.98%, 14% and 23.3%.
On the same counts, the results for “AGGGCUGGACUCAGCGGCGGAGCU [hsa-miR-5001-5p]” are -6.45%, 23.3% and 42.6%.
On the same counts, the results for AAUGAGAGACCUGUACUGUAU [hsa-miR-4712-3p] are -22.6%, 34.8% and 7.13%.
For CGACCUCGGCGACCCCUCACU [hsa-miR-6790-3p], the “5+ nucleoli phenotype percent effect” value in the data set with MCF10A [1] was -13.8%. For the same sequence, in the data set on MCF10A [2], the “one-nucleolus phenotype percent effect” value amounted to 8.29%. Also, in the data set on MCF10A [3], the percent viability was found to be 45.6%.
As for UCUGGCUGUGCUGUAAUGCAG [hsa-miR-6504-5p], in the data set on MCF10A [1], the “5+ nucleoli phenotype percent effect” value is -5.01%. Also, the “one-nucleolus phenotype percent effect” value in the data set with MCF10A [2] was 6.53%. Further, the percent viability in the data set on MCF10A [3] was 54.2%.
In the same order, the values of UACACAAGAAAACCAAGGCUCA [hsa-miR-4801] are 20.3%, -13.4% and 82%.
In the same order, the values of “AACUGGCCUACAAAGUCCCAGU [hsa-miR-193a-3p]” are -15.2%, 29.5% and 21.9%.
“AGGUGGGUAUGGAGGAGCCCU [hsa-miR-6769a-5p]”: in the data set on MCF10A [1], the “5+ nucleoli phenotype percent effect” value is -16.7%. In the data set on MCF10A [2], the “one-nucleolus phenotype percent effect” value was determined as 39.6%. The percent viability in the data set on MCF10A [3] worked out at 14.3%.
On the same counts, the results for ACACUGUCCCCUUCUCCCCAG [hsa-miR-6760-3p] are 56.3%, -27.2% and 92.8%.
On to UUGCCAUACAUAGACUUUAUU [hsa-miR-5590-5p], for which the “5+ nucleoli phenotype percent effect” value with MCF10A [1] was -33.2%. Moreover, the “one-nucleolus phenotype percent effect” value with MCF10A [2] is 33.6%. Besides, the percent viability in the data set on MCF10A [3] turned out to be 44.8%.
In the same order, the values of UAAGUGCUUCCAUGCUU [hsa-miR-302e] are 65.3%, -16.8% and 93.6%.
UGACAGCGCCCUGCCUGGCUC [hsa-miR-2277-3p]: the “5+ nucleoli phenotype percent effect” value in the data set on MCF10A [1] was -19.4%. The “one-nucleolus phenotype percent effect” value with MCF10A [2] was determined as 2.24%. Moreover, in the data set on MCF10A [3], the percent viability was determined as 79%.
On the same counts, the results for UGGAUUUCUUUGUGAAUCACCA [hsa-miR-876-5p] are 24.8%, -21.7% and 143%.
On the same counts, the results for AUGAGCGACUGUGCCUGACC [hsa-miR-5708] are -33%, 21.4% and 47.3%.
Take GCUGAUGAUGAUGGUGCUGAAG [hsa-miR-4502]: in the data set with MCF10A [1], the “5+ nucleoli phenotype percent effect” value was found to be 38.7%. Further, in the data set on MCF10A [2], the “one-nucleolus phenotype percent effect” value was -19.2%. Moreover, in the data set with MCF10A [3], the percent viability was 85.3%.
In the same order, the values of CAACAAAUCCCAGUCUACCUAA [hsa-miR-7-2-3p] are 4.35%, -10.8% and 104%.
In the same order, the values of GCCCCUGGGCCUAUCCUAGAA [hsa-miR-331-3p] are 8.19%, 6.3% and 61.2%.
On the same counts, the results for “CAGGCGUCUGUCUACGUGGCUU [hsa-miR-3186-5p]” are -8.59%, 27.8% and 23.1%.
In the case of “AAAAGUAAUUGUGGUUUUUGCC [hsa-miR-548d-5p]”, the “5+ nucleoli phenotype percent effect” value with MCF10A [1] turned out to be 49.4%. For the same sequence, the “one-nucleolus phenotype percent effect” value with MCF10A [2] is -15.4%. In the data set on MCF10A [3], the percent viability is 95.4%.
On the same counts, the results for UAGGGGCAGCAGAGGACCUGGG [hsa-miR-4688] are 8.84%, 23.4% and 17.5%.
In the same order, the values of GUUGUGUCAGUUUAUCAAAC [hsa-miR-599] are 29.3%, -13.5% and 84.3%.
On the same counts, the results for AUAGGACUCAUAUAGUGCCAG [hsa-miR-3117-3p] are 33%, -13.2% and 35.4%.
With CCAUGAAGCAGUGGGUAGGAGGAC [hsa-miR-8060], the “5+ nucleoli phenotype percent effect” value in the data set with MCF10A [1] stood at 14.9%. For the same sequence, in the data set with MCF10A [2], the “one-nucleolus phenotype percent effect” value was 6.65%. Also, in the data set with MCF10A [3], the percent viability was 43.2%.
On to “UCUGCCAUAGGAAGCUUGGAGUGG [hsa-miR-6817-5p]”, for which the “5+ nucleoli phenotype percent effect” value in the data set on MCF10A [1] turned out to be 1.17%. In addition, the “one-nucleolus phenotype percent effect” value with MCF10A [2] was -25%. Also, the percent viability in the data set on MCF10A [3] was 65.4%.
Regarding UGGAGAGAGAAAAGAGACAGAAG [hsa-miR-4644], the “5+ nucleoli phenotype percent effect” value in the data set on MCF10A [1] amounted to 39.4%. In addition, the “one-nucleolus phenotype percent effect” value in the data set with MCF10A [2] was -24.6%. In the data set on MCF10A [3], the percent viability worked out at 74.5%.
